Experimental data as given in article PMC4027978.

Assays:
[1] = target: GFP-FR (Folate Receptor), GPI-anchored, in MDCK cells; assay: Number and Brightness
Number and Brightness = conditions: other: Number and Brightness (N&B) analysis
GFP-FR, in CHO cells = assay: Number and Brightness

average B value (brightness) [1]	average B value (brightness) (GFP-FR, in CHO cells)	percent of GFP-FR in clusters of 3 to 4 or 5 molecules (GFP-FR, in CHO cells)	Substance	percent of GFP-FR in aggregates of three-four molecules (Number and Brightness)
1.29			GFP-FR (Folate Receptor), GPI-anchored, in MDCK cells	about 30-35% of GFP-FR
	1.36	50%	GFP-FR, in CHO cells	
